Test system: CCCCCN
Experiment: Colorimetric hydrogen peroxide amine oxidase assay, purified mutant enzyme (N336S)
Assay type: biochemical, Aspergillus niger
Details: other: purified N336S mutant; 30.0 °C
Protocol: The wild-type enzyme was also purified by the same protocol and the two enzymes compared for substrate specificity and enantioselectivity.
The mutated gene was also sequenced and the sequence is shown in SEQ ID NO: 2. There was a single amino acid change from the wild-type enzyme with serine replacing asparagine at position 336.
LB medium (6×300 ml) containing ampicillin (100 μg·ml^−1) in 1 L baffled flasks was inoculated with a single colony of monoamine oxidase mutant from an LB agar plate. Cultures were incubated at 30° C. for 22 hours (OD600˜3.6) then harvested and washed with phosphate buffer (50 mM, pH 8) to yield a yellow-brown pellet (11.2 g).
The pellet was resuspended in Tris/HCl buffer (25 mM, pH 7.8, 30 ml) and sonicated on ice (30 s on, 30 s off for 10 minutes). The suspension was then centrifuged (20,000 rpm, 4° C.) until clear supernatant was obtained and the supernatant dialysed against Tris/HCl buffer (25 mM, pH 7.8). […]
The spectrophotometer was blanked against assay mixture and HRP. Enzyme was added and the absorbance at 500 nm measured at 3 s intervals for a 10 minute period.
The Km values were calculated using ‘KaleidaGraph for Windows’ (Synergy Software). For calculation of the kcat, the active enzyme concentration was determined by estimating the FAD content from the absorbance at 458 nm using an extinction coefficient of 11 mM^−1 cm^−1 (see ref 12).

Substance: mutant A. niger monoamine oxidase (N336S) (Aspergillus niger; A300V/K348M/L304V/N336S/R450G)
- Km: 0.4 mM
- kcat: 116 min⁻¹

Source: patent publication US8178324B2, “Deracemisation of amines” (Ingenza Limited, priority 2002, dated 2012)
